From the DeepSol protein solubility set

assay: soluble on expression in E. coli; label from the status in PepcDB or PDB records

| Sequence | soluble on expression in E. coli |
| --- | --- |
| MGSDKIHHHHHHMYYEKAVQKTINWIESHLHEQISNEDIVNVSSFSKFHFHRIFQKEVGMSVASYIRLRRLANAAAALLYTDHRIIDIALYYQFESQEAFTRTFKKMYHMPPGAYRTFMKRFTSKKEESYMEKKMKGWVLSGSHPFQFEMGIDRENVHQGKASGYLKSTMVQDIGEFATMMQQFKADRYLGKRLRLSSFIKTKGVQHFASLWMRVDSAADDVLQFDNMSNRPITGTTNWNHYAIVLDVPENSAVISFGVQLSGPGQVWMDHVVFEEVDESVPSTNLEMPGELLDEPVNLSFEEELQK | not soluble |
| MKSLQALFGGTFDPVHYGHLKPVETLANLIGLTRVTIIPNNVPPHRPQPEANSVQRKHMLELAIADKPLFTLDERELKRNAPSYTAQTLKEWRQEQGPDVPLAFIIGQDSLLTFPTWYEYETILDNAHLIVCRRPGYPLEMAQPQYQQWLEDHLTHNPEDLHLQPAGKIYLAETPWFNISATIIRERLQNGESCEDLLPEPVLTYINQQGLYR | soluble |
| MSLKIAILCASGKVGKEISKEALKRNLEPVCFVRNSSKMNEFLPQAKIVQRDLFELDSKDLIDFDIIIDAFGEWENLSLHKKHIECLSVILQGSKAKLFVVGGAGSLYMDENHTTRLMDMPDFPKEYLDIAKASAEVLEFLRNEKGFKWVYVSPSAIFSPDLPKSNHYKIIGEKFEVNANNESKISYSDYASAMIDIVLNSCYENTRIGVISLEGHHHHHH | soluble |
| MAHHHHHHMNSKASPAALPMRQGRGFQVIVHGVLEGAECVEVGSVFARTQLFFGPDWAFLESNSGYGEDAAADDDDLVEPTYSNNAEVVTQLCDCAKGPVPYFSFTAPFEFALTSTNPFGWPQLVITLHTVEGAGGSSGKGADGNDTQLLGSGESIIGYGRCFIPMKSGYHTKKVPMMQLESTTSKQQLISFLTREKPVLRDLSFLCTGDDQVMLHARPLDGYVKLNFSVMINGMESSGFEV | soluble |
| MTAEVTAADAEVLLAQPRGFCAGVDRAIDIVERALELHGAPIYVRHEIVHNRYVVEDLRGKGAVFIDELDQAPAGAIVVFSAHGVSQAVRGEAEARGLRVFDATCPLVTKVHIEVARMRAAGREIVMIGHKGHPEVEGTLGQAQGGMYLVETVEDVAALQVSDPGNLAYVTQTTLSVDDAAAVAGALKARFPGIVEPKKSDICYATQNRQDAVKLLAPECDLVLVVGSTNSSNSNRLREVAERKGVAAYLIDGAHAIDPAWLQGRRSIGITAGASAPEVLVQQVVERVRELGAVSVRTMPGLEESVAFPLPKGLSRKIAQTESLEAAALEHHHHHH | not soluble |
| MSLEARGLNVTIMKLDPYINVDPGTMSPTQHGEVFVTQDGAETDLDLGHYERFIRTKMTKRNNFTTGKIYSEVLRKERRGDYLGATIQVIPHITNEIKDRVIAGAQGHDVVIVEVGGTVGDIESLPFLEALRQLAVQVGREHTLFMHLTLVPYIPTAGEVKTKPTQHSVKELLSIGIQPDVLICRSDRMIPPNERAKIALFCNVAERAVISLKDVNSIYQIPALLKSQGLDDFVCERFRLTCPEADLTEWEQVLYKQANPVGEVTIGMVGKYTELPDAYKSVNEALKHAGLTNRLSVNIKYIDSQDVETKGVEVLKGIDGILVPGGFGYRGVEGKIRTAQYARENKIPYLGICLGMQIALIEYARNVAGLTKANSSEFDKDCEQPVVALITEWQDAEGNTEVRTDESDLGGTMRLGAQQCHLVSGSRARELYGKETIEERHRHRYEVNNTLLPQIEKAGLKVTGLSADKKLVEIIEVPNHPWFVACQFHPEFTSTPRDGHPLFAGFVKAAYENHKKSVKEGHHHHHH | not soluble |
| MGSDKIHHHHHHMDNPRSIRVHASELEVGRPLSWAVYDENGVLLLNKGMAPATEAQIIAMLQRGVFRQPGSGVGAGAAGSKSAIPPMGLGPSEDESKTRLTGDPIPFDDLAMQPGEVLQLHPALEVVAADVPAVLIGYLKDRAIVVATPMVSGKPLLVKDGTLFNIKTFSGTSLYNFRTRVLASHSHPMPHLHLEYPRLVCQTKIRKALRALTDLPATLLNPASGDSRDVVLKDLSVGGAKIVLPEPVTCAKGDPFVVGFRIKIGDDLEEAIRADAVMCSAESRTGKETTVHTMSVQFKELPKSTSLAIMALVYRLQLRKG | not soluble |
| MIHSLFLINSSGDIFLEKHWKSVVSRSVCDYFFEAQERATEAENVPPVIPTPHHYLLSVYRHKIFFVAVIQTEVPPLFVIEFLHRVVDTFQDYFGVCSEPVIKDNVVVVYEVLEEMLDNGFPLATESNILKELIKPPTILRTVVNTITGSTNVGDQLPTGQLSVVPWRRTGVKYTNNEAYFDVVEEIDAIIDKSGSTVTAEIQGVIDACVKLTGMPDLTLSFMNPRLLDDVSFHPCVRFKRWESERILSFIPPDGNFRLLAYHVSAQNLVAIPVYVKHSISFRDSSSLGRFEITVGPKQTMGKTIEGVIVTSQMPKGVLNMSLTPSQGTHTFDPVTKMLSWDVGKINPQKLPSLKGTMGLQVGASKPDENPTINLQFKIQQLAISGLKVNRLDMYGEKYKPFKGIKYMTKAGKFQVRT | not soluble |
| SLYANYKRVYENEALETLKVYTTFLRNALIEVNTLMVHSQHFYKSFMGNLKYILDSVAVNKLKSNYNKDMPVVVVSAGPSLEKNIRFLKDCQDKCIIITGGRTLKTLLDLDIKPDYVCVVDPDVPAYDVMRGTFDCTAPLLFCEYTYYEILRDYKGEKIFFNDIGMLGLQKEFLNYDVDNIFEGGSVAHVCAGLGVYIGGDPIIFIGQDLAYTNDKAHADSAGDTNVEGDKKIVYVEDINGDIIKSDSVLNFYRIKLEEMTQLFKENNFINSTEGGANIKGTKIIPLKEVLKKFCLNKKKDYTLGENIGKYVSREQVVCKLMDAKKIMNKVKKEIEASIDLCSEFLEKENRWNKTIIDNINRKLSKTDKLINSSIGEMEFMRNLILPNIYESSMNKEYKQKYNETEKEKIKRVYKKNILLYNGIKTSIMEAGPEIEKCIKSLKES | not soluble |
| MSLQYQNQDNFPERIEYLVDKLNGPSEFARKTGVTLSTITRWRKGEADPSRSNLVKIAEVTGVSIEWLATGKIKEEKTTEEKPAGSLVSRAFERMQAMLEEGVSMIDSYSSINVSAGFGSFNEGITQPDGQEPYSDELLTSLGVKADNCAVFWANGNSMLPTINNYDQMLVDLSRKEIQGDRIYLVQNGESVWVKRVKMEWDGISLISDNKEEYPPISITGENAQNLQIIGQVVHIGHSLIEGHHHHHH | soluble |
| MGSDKIHHHHHHMTISQQAVLAATAITKTFGAHVALHTIDIAFRPGEVHALLGENGAGKSTLIKILTGAYTPDAGTVLVDGAPMSFSTPQQAQAAGIGTVYQEVNLLTNMTVADNLFIGRQPRRFGLVDHRTMEREARRILSGYGLDIDVRAELATFSVAVQQIIAIARAVELSGKVLILDEPTASLDRSEVLKLFEIVRGLKARGLAIVFITHFLDQVFELCDHATVLRNGKLVGSQPIDTLNRTTLVRMMLGKDLSLHHDAVAGIEAEVGESLMQFTGYGLDGKVQPFTLTIHKGEVIGVAGLLGSGRTEMARLMFGIDSADKGELTLNGASFKIRSPRQAIDLGFGFCPEDRKADGIFGDLSVRENIIIAMQAKLGWLRTLSYDEQMEIAGQFIEALDIRTASAELPIKLLSGGNQQKAILARWLATDPRFLILDEPTRGIDVGAHAEIVRMISRLREDGLALIVISSELDEVVSYSSRIVVMRDRAMVAELHGADIAPDVIVQTIAAQSNTPAQSEGAFS | not soluble |
| MKRNLLSSAIIVAIMSLGLTGCDDKKAETETLPPANSQPAAPAPEAKPTEAPVAKAEAKPETPAQPVVDEQAVFDEKMDVYIKCYNKLQIPVQRSLARYADWLKDFKQGPTGEERTVYGIYGISESNLAECEKGVKSAVALTPALQPIDGVAVSYIDAAVALGNTINEMDKYYTQENYKDDAFAKGKTLHQTFLKNLEAFEPVAESYHAAIQEINDKRQLAELKNIEEREGKTFHYYSLAVMISAKQINNLISQDKFDAEAAMKKVSELETLVAQAKEADKGGMNFSFINSAGQYQLEAKKYVRRIRDKVPYSDWDKEQLQDANSSWMVEDSFPRALREYNEMVDDYNSLR | soluble |
| MGSDKIHHHHHHMGNKPSGRHYFAEGITNRGYISLLPNMMSEWERTYVLMGGPGTGKSTTIKMIGLDLLDRGYEVDFLRSARDPDSMAGVLIRRFNWAILDHYEIAPLHWRAPGVIEHFVDFSKYCNQGKLEQQRLRVLELGEKIKRGQQRIGEILAEEFGGRIRERFYAKADEGRPWLPKLYASDLFKEAKGPWSKAQDALKKIQKSAVQSFFLHGINPEGWLNLAPYFLTDYDQIRFDGEEAHEAMEWVLQEAEQLGQVIDIVLHPLYPDEILGIVFPERNLAIWQGDPEHLEDQGLGCPFSNDLKKALLDTQRLRDKLKAIYTKTVDFDQVDSMKTDLLSSILRDMDKKVHTID | not soluble |
